From US20190330347A1 (published 2019)

Molecular target: biotin-labeled PD-1 antigen (UniProt Q15116 25-167, biotin-labeled (site not stated))
Assay: BLI (Fortebio)

biotin-labeled PD-1 antigen, sequence (Q15116 25-167): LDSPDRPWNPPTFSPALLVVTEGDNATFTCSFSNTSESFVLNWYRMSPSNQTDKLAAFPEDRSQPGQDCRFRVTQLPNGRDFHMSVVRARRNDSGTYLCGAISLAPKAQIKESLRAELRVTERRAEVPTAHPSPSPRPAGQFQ

B1: humanized H8L2 antibody (IgG-like antibody H8L2 against PD-1) (antibody)
heavy: EVQLVQSGGGLVQPGGSLKLSCAASGFTFSSYGMSWVRQAPGKGLDWVATISGGGRDTYYPDSVKGRFTISRDNSKNNLYLQMNSLRAEDTALYYCARQKGEAWFAYWGQGTLVTVSSASTKGPSVFPLAPCSRSTSESTAALGCLVKDYFPEPVTVSWNSGALTSGVHTFPAVLQSSGLYSLSSVVTVPSSSLGTKTYTCNVDHKPSNTKVDKRVESKYGPPCPPCPAPEFLGGPSVFLFPPKPKDTLMITRTPEVTCVVVDVSQEDPEVQFNWYVDGVEVHNAKTKPREEQFNSTYRVVSVLTPLHQDWLNGKEYKCKVSNKGLPSSIEKTISKAKGQPREPQVYTLPPSQEEMTKNQVSLTCLVKGFYPSDIAVEWESNGQPENNYKTTPPVLDSDGSFFLYSRLTVDKSRWQEGNVFSCSVMHEALHAHYTQKSLSLSLGK
light: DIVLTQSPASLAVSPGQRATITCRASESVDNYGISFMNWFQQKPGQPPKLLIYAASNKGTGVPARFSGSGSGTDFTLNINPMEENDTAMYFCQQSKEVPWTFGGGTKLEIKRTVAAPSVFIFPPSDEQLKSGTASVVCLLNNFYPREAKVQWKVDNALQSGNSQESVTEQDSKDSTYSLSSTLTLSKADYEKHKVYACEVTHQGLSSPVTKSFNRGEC
For B1, the Kd was 0.103 nM.
